Measurements as given in doi:10.1101/2024.12.03.626679, “Structure of the SMYD2-PARP1 Complex Reveals Both Productive and Allosteric Modes of Peptide Binding” (bioRxiv, 2024).

What was measured:
[1] = biological target: SMYD2-F184A (human) (UniProt Q9NRG4); experiment: ELISA; inhibition: SMYD2 proteins pre-incubated with varying concentrations of the PARP1 peptide, then added to wells coated with PARP1(518-1014), H3 or H4; four-parameter logistic fit
[2] = biological target: SMYD2-F184A (human) (UniProt Q9NRG4); experiment: ITC; NanoITC SV, 27°C, 25 mM Tris pH 7.5, 50 mM NaCl; 40 μM SMYD2 in the cell, 631 μM PARP1 peptide in the syringe, 16 injections of 15 μL; one-site, two-site and binding polynomial models

Chain of SMYD2-F184A (human) (Q9NRG4 whole entry F184A): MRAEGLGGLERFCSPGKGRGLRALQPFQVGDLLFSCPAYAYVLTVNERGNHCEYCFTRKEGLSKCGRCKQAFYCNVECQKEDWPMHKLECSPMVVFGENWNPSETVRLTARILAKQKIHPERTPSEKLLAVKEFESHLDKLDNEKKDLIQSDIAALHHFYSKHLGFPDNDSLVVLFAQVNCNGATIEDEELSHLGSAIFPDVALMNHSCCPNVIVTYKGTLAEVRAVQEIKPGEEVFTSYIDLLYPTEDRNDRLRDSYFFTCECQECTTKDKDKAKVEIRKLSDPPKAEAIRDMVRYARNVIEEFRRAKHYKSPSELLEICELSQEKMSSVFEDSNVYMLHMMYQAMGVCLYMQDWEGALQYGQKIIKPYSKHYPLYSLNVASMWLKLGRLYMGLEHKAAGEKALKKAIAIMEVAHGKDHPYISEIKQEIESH

Substance: PARP1 peptide (13-residue synthetic peptide, human PARP1 residues 522-534)
- IC50 [1]: 153 nM
- stoichiometry N [2]: 1
